Data on one molecule can be found in US20220403022A1 (Merck KGaA, published 2022).

Where “and” joins values, the source holds several entries; their conditions need not be identical. Identical values can stand only once. A value given as a limit tells only on which side of the number the result lay.

The target of assay [1] is T1, human TIGIT on cells (primary T cells, transfected HEK293 cells, Jurkat reporter cells, NK cells) (human, UniProt Q495A1 22-244).
T1 sequence: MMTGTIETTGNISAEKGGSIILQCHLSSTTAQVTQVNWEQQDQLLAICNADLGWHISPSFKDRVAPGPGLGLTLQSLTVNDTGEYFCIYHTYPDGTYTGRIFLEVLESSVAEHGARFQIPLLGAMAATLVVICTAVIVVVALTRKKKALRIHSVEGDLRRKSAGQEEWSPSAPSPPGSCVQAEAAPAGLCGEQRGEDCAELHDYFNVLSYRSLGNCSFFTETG
The assay is described as follows: cell-based or functional assay.

For assay [2], the target named is T2, human TIGIT ECD expressed on the CHO-S cell surface (human, UniProt Q495A1 22-141).
T2 sequence: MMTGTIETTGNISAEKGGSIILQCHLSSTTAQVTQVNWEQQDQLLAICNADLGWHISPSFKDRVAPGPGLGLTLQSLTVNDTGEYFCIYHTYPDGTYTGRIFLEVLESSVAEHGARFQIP
The assay is described as follows: cell-based or functional assay.

Assay [3] deals with T3, cynomolgus monkey TIGIT on primary T cells (cynomolgus monkey, UniProt A0A7N9I9V4 89-312).
T3 construct: whole, on cells; also called cyno PBMCs; cynomolgus monkey spleen cells
T3 sequence (A0A7N9I9V4 entry or part of it): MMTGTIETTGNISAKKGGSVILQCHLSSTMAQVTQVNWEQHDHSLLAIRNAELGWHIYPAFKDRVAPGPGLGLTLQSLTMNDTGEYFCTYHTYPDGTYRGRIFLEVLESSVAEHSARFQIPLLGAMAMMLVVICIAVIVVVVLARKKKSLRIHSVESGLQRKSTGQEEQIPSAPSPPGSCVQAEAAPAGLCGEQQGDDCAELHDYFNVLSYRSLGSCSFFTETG
Put plainly: flow cytometry on CD3+ T cells of cyno PBMCs.

For assay [4], the target named is T1, human TIGIT on cells (primary T cells, …). The assay is described as follows: flow cytometry, live transfected HEK293 cells. (In flow cytometry, cells or beads pass a laser one at a time.)
The target in assay [5] is T4, human TIGIT ECD (wild-type, expressed in E. coli) (human, UniProt Q495A1 22-141).
T4 construct: also called huTIGIT; wild-type TIGIT
T4 sequence: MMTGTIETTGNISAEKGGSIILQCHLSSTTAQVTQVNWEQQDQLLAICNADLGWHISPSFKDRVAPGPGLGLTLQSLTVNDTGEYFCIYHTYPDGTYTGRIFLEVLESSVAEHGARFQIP
The assay is described as follows: SPR, antibody captured on anti-human Fc, TIGIT ECD injected. On the technique in general: Surface plasmon resonance follows binding to a sensor surface in real time, without labels.

A further assay deals with T5, human TIGIT ECD T51A (human, UniProt Q495A1 22-141).
T5 construct: point mutant expressed in E. coli
T5 chain: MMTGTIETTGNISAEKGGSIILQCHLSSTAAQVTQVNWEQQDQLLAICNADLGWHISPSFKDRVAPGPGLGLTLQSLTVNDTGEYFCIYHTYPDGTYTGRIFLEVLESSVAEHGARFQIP
The assay is described as above.

The target in another assay is T6, human TIGIT ECD T55A (human, UniProt Q495A1 22-141).
T6 construct: point mutant expressed in E. coli
T6 chain: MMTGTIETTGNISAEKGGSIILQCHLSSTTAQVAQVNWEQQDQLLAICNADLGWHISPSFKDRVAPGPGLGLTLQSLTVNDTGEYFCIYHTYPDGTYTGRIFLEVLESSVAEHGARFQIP
Described as above.

The next assay has as its target T7, human TIGIT ECD Q56A (human, UniProt Q495A1 22-141).
T7 construct: point mutant expressed in E. coli
T7 chain: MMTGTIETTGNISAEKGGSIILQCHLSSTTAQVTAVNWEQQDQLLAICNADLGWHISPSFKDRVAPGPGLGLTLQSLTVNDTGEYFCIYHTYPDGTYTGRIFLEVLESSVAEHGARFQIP
The assay is described as above.

Another assay concerns the target T8, human TIGIT ECD A71G (human, UniProt Q495A1 22-141).
T8 construct: point mutant expressed in E. coli
T8 chain: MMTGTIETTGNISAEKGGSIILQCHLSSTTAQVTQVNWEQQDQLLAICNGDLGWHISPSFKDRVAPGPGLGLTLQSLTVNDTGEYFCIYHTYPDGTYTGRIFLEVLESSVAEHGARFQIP
Described as above.

A further assay concerns the target T9, His-tagged human TIGIT (human, UniProt Q495A1 22-141).
T9 construct: soluble analyte in SPR
T9 sequence: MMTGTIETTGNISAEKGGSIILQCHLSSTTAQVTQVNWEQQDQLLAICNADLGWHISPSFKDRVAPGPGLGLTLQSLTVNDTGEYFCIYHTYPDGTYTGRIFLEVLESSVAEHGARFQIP
The assay is described as follows: SPR Biacore, antibody captured on anti-human Fc, His-tagged TIGIT injected.

For assay [6], the target named is T10, His-tagged cynomolgus monkey TIGIT (cynomolgus monkey, UniProt A0A7N9I9V4 89-209).
T10 construct: also called Cyno TIGIT; cynomolgus monkey TIGIT (Novoprotein cat. No. CP02)
T10 sequence (A0A7N9I9V4 entry or part of it): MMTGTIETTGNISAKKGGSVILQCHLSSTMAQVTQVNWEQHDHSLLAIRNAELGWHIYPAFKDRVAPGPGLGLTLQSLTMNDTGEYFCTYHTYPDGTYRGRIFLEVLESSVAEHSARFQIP
The assay is described as above.

The target of assay [7] is T2, human TIGIT ECD expressed on the CHO-S …. The assay is described as follows: flow cytometry blocking assay on CHO-S-human TIGIT cells, competitor biotinylated human CD155-Fc 2 µg/mL.
Assay [8] has the same target. Put plainly: flow cytometry blocking assay on CHO-S-hTIGIT cells, competitor muCD112; competitor muCD112; human IgG 3963H03-12.
Assay [9] has the same target. The assay is described as follows: flow cytometry blocking assay on CHO-S-hTIGIT cells, competitor muCD155-Fc; competitor muCD155-Fc; human IgG 3963H03-12.

B1: 3963H03-12 (antibody, human IgG1, kappa, V domains shown)
VH: QVQLVQSGSELKKPGASVKVSCKASGYTFTSYPMNWVRQAPGQGLEWMGWINTNTGNPTYAQGFTGRFVFSLDTSVSTAYLQISSLKAEDTAVYYCARVGGYSVDEYAFDVWGQGTLVTVSS
VL: DIQLTQSPSFLSASVGDRVTITCRASQGISSYLAWYQQKPGKAPKLLIYAASTLQSGVPSRFSGSGSGTEFTLTISSLQPEDFATYYCQQLSSYPTFGGGTKVEIKR
notes: also called anti-TIGIT H03-12; 39631H03-12
Regarding B1, the 50% effective concentration (EC50) in assay [1] was 12.5 µg/mL; in assay [3], 0.132 µg/mL and 0.8 nM. In assay [2], the “ADCC EC50, nM (Donor 1005-4464)” value was 0.026 nM. For the same molecule, the “ADCC EC50, nM (Donor 1102-7215)” value in assay [2] worked out at 0.1 nM. Besides, the “ADCC EC50, nM (Donor 1106-0557)” value in assay [2] stood at 0.059 nM. Moreover, the “fold median fluorescence over vector-only transfected HEK293 cells” value in assay [4] came out at 130 fold. The Kd in [5] was 2.08 nM; with human TIGIT ECD T51A, 1.77 nM; with human TIGIT ECD Q56A, 33.9 nM; in the assay with human TIGIT ECD A71G, 7.02 nM; with His-tagged human TIGIT it was 4.05 nM; in assay [6], 0.829 nM and 0.83 nM. The “ΔΔGmut” value in [5] was 0 kcal/mol; with human TIGIT ECD T51A, -0.1 kcal/mol; with human TIGIT ECD T55A, more than 3 kcal/mol; in the assay with human TIGIT ECD Q56A it was 1.65 kcal/mol; with human TIGIT ECD A71G it was 0.72 kcal/mol. Besides, the koff with His-tagged human TIGIT came to 0.00067 s⁻¹; in assay [6], 0.000133 s⁻¹. Moreover, the figures for the kon (with His-tagged human TIGIT; in assay [6]) were 166000 M⁻¹ s⁻¹ and 160000 M⁻¹ s⁻¹, respectively. For the same molecule, the IC50 in assay [7] was 0.165 µg/mL and 1.1 nM; in assay [8], 1.68 µg/mL; in [9], 0.499 µg/mL.

By EC50 is commonly meant the concentration giving half of the maximal effect. One may read the Kd as the free concentration of one partner at which half of the binding sites on the other are occupied at equilibrium, for simple one-to-one binding. A word on the koff: it is the rate constant with which the complex falls apart. A word on the kon: it is a measure of how fast the partners come together. As a reminder, the IC50 is the concentration at which inhibition is half-maximal.
